The record followed here is US6835378B2, “Method and compositions for inhibiting thrombin-induced coagulation” (The Texas A&M University System University, priority 2001, dated 2004).

Entries after “also recorded” stand apart in the source; their conditions may differ.

The test system of assay [1] is fibronectin, collagen types I and IV, vitronectin, laminin and thrombospondin. Nature of the assay: ELISA: ligand specificity on other immobilized ECM proteins. Conditions: data not shown. In kind it is binding. In general terms: An ELISA detects its analyte on a solid surface through an enzyme-linked reagent.
Another assay addresses T1, thrombin digested Fg (Homo sapiens, UniProt P02675).
T1 construct: purchased Enzyme Research Labs
T1 sequence (P02675 45-491 limits assumed): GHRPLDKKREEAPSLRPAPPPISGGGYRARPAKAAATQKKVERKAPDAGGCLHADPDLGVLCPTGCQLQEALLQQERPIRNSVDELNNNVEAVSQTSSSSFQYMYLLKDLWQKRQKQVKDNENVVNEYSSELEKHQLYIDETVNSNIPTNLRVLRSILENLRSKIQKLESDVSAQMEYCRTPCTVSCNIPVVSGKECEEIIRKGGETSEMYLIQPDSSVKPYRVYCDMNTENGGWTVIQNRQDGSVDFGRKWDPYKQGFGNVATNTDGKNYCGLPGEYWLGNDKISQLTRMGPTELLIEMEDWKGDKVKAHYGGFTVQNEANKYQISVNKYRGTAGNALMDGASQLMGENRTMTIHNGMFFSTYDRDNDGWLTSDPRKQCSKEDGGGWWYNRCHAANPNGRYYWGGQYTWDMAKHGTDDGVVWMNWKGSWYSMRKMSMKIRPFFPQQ
T1 sequence (P02671 36-629 partner limits assumed): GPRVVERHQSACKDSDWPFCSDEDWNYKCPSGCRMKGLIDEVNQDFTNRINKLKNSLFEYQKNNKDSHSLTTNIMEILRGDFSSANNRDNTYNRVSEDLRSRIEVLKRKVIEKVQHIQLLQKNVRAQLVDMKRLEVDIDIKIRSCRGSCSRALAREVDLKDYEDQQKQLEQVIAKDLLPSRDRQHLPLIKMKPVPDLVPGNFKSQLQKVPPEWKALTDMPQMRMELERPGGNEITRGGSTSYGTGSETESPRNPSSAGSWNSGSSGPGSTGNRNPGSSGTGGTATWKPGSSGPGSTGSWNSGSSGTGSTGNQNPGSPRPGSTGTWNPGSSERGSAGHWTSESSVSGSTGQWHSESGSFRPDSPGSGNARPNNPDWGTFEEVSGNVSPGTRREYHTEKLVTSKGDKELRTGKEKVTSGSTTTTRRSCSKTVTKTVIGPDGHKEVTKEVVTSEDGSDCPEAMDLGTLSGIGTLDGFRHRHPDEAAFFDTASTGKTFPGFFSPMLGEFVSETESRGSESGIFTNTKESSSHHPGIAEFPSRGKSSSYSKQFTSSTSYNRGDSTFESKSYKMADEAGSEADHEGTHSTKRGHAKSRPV
T1 sequence (P02679 27-437 isoform P02679-2 partner limits assumed): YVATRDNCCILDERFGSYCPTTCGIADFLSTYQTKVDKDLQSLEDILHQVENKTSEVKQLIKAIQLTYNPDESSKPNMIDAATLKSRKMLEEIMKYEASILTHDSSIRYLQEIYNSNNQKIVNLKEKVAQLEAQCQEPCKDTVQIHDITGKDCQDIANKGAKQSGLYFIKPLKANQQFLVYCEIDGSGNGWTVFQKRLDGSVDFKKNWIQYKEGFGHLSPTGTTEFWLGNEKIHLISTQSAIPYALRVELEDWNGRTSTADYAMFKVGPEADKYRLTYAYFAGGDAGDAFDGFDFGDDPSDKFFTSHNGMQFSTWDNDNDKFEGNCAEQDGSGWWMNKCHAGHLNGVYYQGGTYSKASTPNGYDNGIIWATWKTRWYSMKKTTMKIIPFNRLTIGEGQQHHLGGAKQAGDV
Nature of the assay: ELISA with thrombin-digested Fg. It is filed as binding. Particulars: Fg wells pretreated with thrombin 30 min 37° C. As to the method:
For the ELISA with thrombin-digested Fg, the plate was coated with Fg and blocked as described above. The plate was washed three times with PBST and 50 μl of 1.0 NIH unit/ml of thrombin was added to the Fg coated wells. The plate was incubated at 37° C. for 30 min. The plate was washed three times with PBST and 50 μl of 1.0 NIH unit/ml of hirudin (Sigma) was added to the wells and incubated at 37° C. for 30 min. The plate was washed three times with PBST and blocked with 1% BSA for 1 h at room temperature. After washing three times with PBST, 100 μl of biotin labeled rSdrG(50-597) (25-1000 nM) or a rSdrG(50-597)/hirudin (1.0 NIH unit/ml) mixture was added to the wells and incubated for 1 h at room temperature. The plate was washed three times with PBST and a 1:5000 dilution of streptavidin-AP conjugated (Boehringer Mannheim) in PBST/0.1% BSA was added to the wells for 1 h at room temperature. The plate was washed three times with PBST and developed as described above.

Assay [2] relates to thrombin-induced fibrin clot formation. Nature of the assay: Fg coagulation assay (fibrin clot inhibition). It is filed as biochemical. Particulars: 3.0 μM Fg, 0-6.0 μM protein, 1.0 NIH unit/ml thrombin, OD 405 nm. As to the method:
Fg Coagulation Assay—150 μl of a 3.0 μM Fg solution was incubated with 10 μl of rSdrG(50-597) or BSA (1.0-6.0 μM) and 50 μl of thrombin (Sigma) (1.0 NIH unit/ml) in microtiter wells at room temperature. Clot formation was monitored by measuring the increase in optical density (OD) at 405 nm over time and expressed as Vmax (mOD/min). A plate reader (Thermomax microplate reader, SOFTmax software, Molecular Devices) was used to monitor OD. Using the kinetic mode with one wavelength (L1=405 nm), samples were read every 10 sec for 5 min. In this assay, 1.0 NIH unit/ml of thrombin incubated with 3.0 μM Fg produced a fibrin clot in 5 min at room temperature.
rSdrG(50-597) Inhibits Thrombin-Induced Fibrin Clot Formation—In the final stages of the blood coagulation cascade, thrombin cleaves Fg releasing the fibrinopeptides and producing fibrin monomers. These fibrin monomers then polymerize to form a fibrin clot (20). […] To test this hypothesis, we designed a fibrin clot inhibition assay in which 3.0 μM Fg, 0-6.0 μM rSdrG(50-597) and 1.0 NIH unit/ml of thrombin were incubated and the formation of a fibrin clot was monitored by measuring the increase in optical density at 405 nm.

B1: rSdrG(50-597): recombinant His-tagged A region (residues 50-597) of SdrG, a fibrinogen-binding MSCRAMM from S. epidermidis (protein)
chain: HHHHHHAEENTVQDVKDSNMDDELSDSNDQSSNEEKNDVINNSQSINTDDDNQIKKEETNSNDAIENRSKDITQSTTNVDENEATFLQKTPQDNTQLKEEVVKEPSSVESSNSSMDTAQQPSHTTINSEASIQTSDNEENSRVSDFANSKIIESNTESNKEENTIEQPNKVREDSITSQPSSYKNIDEKISNQDELLNLPINEYENKVRPLSTTSAQPSSKRVTVNQLAAEQGSNVNHLIKVTDQSITEGYDDSDGIIKAHDAENLIYDVTFEVDDKVKSGDTMTVNIDKNTVPSDLTDSFAIPKIKDNSGEIIATGTYDNTNKQITYTFTDYVDKYENIKAHLKLTSYIDKSKVPNNNTKLDVEYKTALSSVNKTITVEYQKPNENRTANLQSMFTNIDTKNHTVEQTIYINPLRYSAKETNVNISGNGDEGSTIIDDSTIIKVYKVGDNQNLPDSNRIYDYSEYEDVTNDDYAQLGNNNDVNINFGNIDSPYIIKVISKYDPNKDDYTTIQQTVTMQTTINEYTGEFRTASYDNTIAFSTSSGQGQGDLPPE
Take B1: the “binding to other immobilized ECM proteins” value in assay [1] is reported as “failed to bind”. The entries for the “binding to thrombin digested Fg” value with thrombin digested Fg and in the assay with thrombin digested Fg (listed as SdrG) were “significantly impaired; also recorded: unable to bind” and “could not bind; also recorded: does not bind”, respectively. In addition, the fibrin clot formation result is given as “inhibited fibrin clot formation in a concentration dependent manner” in assay [2] and “inhibit thrombin-induced fibrinogen coagulation” in assay [2] (listed as SdrG).
